Laboratory results: patent US20190177366A1 (published 2019)
Bridge positions count the residues as written; N and C are the ends. Square brackets hold non-standard residues; d marks the D form. * marks the point of attachment. 5FAM = O=C1OC2(c3ccc(O)cc3Oc3cc(O)ccc32)c2ccc(C(=O)*)cc21; hArg = N=C(N)NCCCC[C@H](N)C(=O)O; Pentanoyl = CCCCC(=O)*

These binders were tested against T1, human PCSK9 (proprotein convertase subtilisin/kexin type 9), His-tagged, full-length (human, UniProt A8T644 31-152; Q8NBP7 153-692, limits assumed) (assay: TR-FRET competition vs EGF(A)-Fc on His-PCSK9).
T1 construct: The secreted protein is the prodomain plus the catalytic/Cys-rich part (N-terminus S153) after autocleavage; also called His-PCSK9; NARC-1
T1 sequence (A8T644 31-152 limits assumed, chain 1 of 2): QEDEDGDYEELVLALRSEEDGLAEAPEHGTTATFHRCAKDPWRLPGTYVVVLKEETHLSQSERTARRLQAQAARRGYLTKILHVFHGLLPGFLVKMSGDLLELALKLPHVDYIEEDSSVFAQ
T1 sequence (A8T644 other isoform, or with tags, fused parts or gaps limits assumed, chain 2 of 2): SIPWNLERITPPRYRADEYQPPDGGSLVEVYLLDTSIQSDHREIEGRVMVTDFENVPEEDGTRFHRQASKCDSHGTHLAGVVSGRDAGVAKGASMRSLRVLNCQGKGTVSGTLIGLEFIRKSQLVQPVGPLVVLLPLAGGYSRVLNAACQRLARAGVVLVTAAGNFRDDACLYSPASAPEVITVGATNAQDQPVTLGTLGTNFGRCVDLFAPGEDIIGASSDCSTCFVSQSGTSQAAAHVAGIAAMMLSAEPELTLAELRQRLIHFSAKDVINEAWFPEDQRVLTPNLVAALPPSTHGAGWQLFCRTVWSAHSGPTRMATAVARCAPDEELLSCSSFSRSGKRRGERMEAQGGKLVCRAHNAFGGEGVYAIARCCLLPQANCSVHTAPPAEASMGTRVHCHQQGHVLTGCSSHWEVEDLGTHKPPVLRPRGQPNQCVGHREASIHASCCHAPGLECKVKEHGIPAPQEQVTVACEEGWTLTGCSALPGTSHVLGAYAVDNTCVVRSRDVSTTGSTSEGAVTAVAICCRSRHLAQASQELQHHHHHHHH

Row | Binder | IC50 [µM]
1 | Ac-PWNLVRIGL-NH2 [Compound 119] | > 50
2 | Ac-WNLVRIGL-NH2 [Compound 120] | > 50
3 | Pentanoyl-WNLVRIGLLR-NH2 (SMILES CCCCC(=O)N[C@@H](Cc1c[nH]c2ccccc12)C(=O)N[C@@H](CC(N)=O)C(=O)N[C@@H](CC(C)C)C(=O)N[C@H](C(=O)N[C@@H](CCCNC(=N)N)C(=O)N[C@H](C(=O)NCC(=O)N[C@@H](CC(C)C)C(=O)N[C@@H](CC(C)C)C(=O)N[C@@H](CCCNC(=N)N)C(N)=O)[C@@H](C)CC)C(C)C) [Compound 111] | > 50
4 | Pentanoyl-WNLV[hArg]IGLTR-NH2 (SMILES CCCCC(=O)N[C@@H](Cc1c[nH]c2ccccc12)C(=O)N[C@@H](CC(N)=O)C(=O)N[C@@H](CC(C)C)C(=O)N[C@H](C(=O)N[C@@H](CCCCNC(=N)N)C(=O)N[C@H](C(=O)NCC(=O)N[C@@H](CC(C)C)C(=O)N[C@H](C(=O)N[C@@H](CCCNC(=N)N)C(N)=O)[C@@H](C)O)[C@@H](C)CC)C(C)C, also called n-BuC(O)-WNLV(homoR)IGLTR-NH2) [Compound 118] | > 50

Next, values leading:

Row | IC50 [µM] | Binder
5 | > 50 | Pentanoyl-WNLVRIGTTR-NH2 (SMILES CCCCC(=O)N[C@@H](Cc1c[nH]c2ccccc12)C(=O)N[C@@H](CC(N)=O)C(=O)N[C@@H](CC(C)C)C(=O)N[C@H](C(=O)N[C@@H](CCCNC(=N)N)C(=O)N[C@H](C(=O)NCC(=O)N[C@H](C(=O)N[C@H](C(=O)N[C@@H](CCCNC(=N)N)C(N)=O)[C@@H](C)O)[C@@H](C)O)[C@@H](C)CC)C(C)C) [Compound 113]
6 | > 50 | Pentanoyl-WNLVRIGTLR-NH2 (SMILES CCCCC(=O)N[C@@H](Cc1c[nH]c2ccccc12)C(=O)N[C@@H](CC(N)=O)C(=O)N[C@@H](CC(C)C)C(=O)N[C@H](C(=O)N[C@@H](CCCNC(=N)N)C(=O)N[C@H](C(=O)NCC(=O)N[C@H](C(=O)N[C@@H](CC(C)C)C(=O)N[C@@H](CCCNC(=N)N)C(N)=O)[C@@H](C)O)[C@@H](C)CC)C(C)C) [Compound 114]
7 | > 50 | Ac-DLMPWNLVRIGLL-NH2 [Compound 46]
8 | > 50 | Ac-DLMPWNLVRIGL-NH2 [Compound 47]
9 | > 50 | Ac-DLMPWNLVRIG-NH2 [Compound 48]
10 | > 50 | Ac-DLMPWNLVRI-NH2 [Compound 49]

These binders were tested against T1, human PCSK9 (proprotein convertase …) (assay: SPR, SensiQ Pioneer FE, amine-coupled protein, OneStep gradient injection (Method 3)).

Row | Binder | Kd [µM]
11 | Ac-CFIPWNLQRIGLLC-NH2 (disulfide 1-14 (inferred)) [Compound 31] | 5.83
12 | Ac-CRLPWNLQRIGLPC-NH2 (disulfide 1-14 (inferred)) [Compound 32] | 1.3
13 | Ac-CRLPWNLARIGLPC-NH2 (disulfide 1-14; SMILES CC[C@H](C)[C@@H]1NC(=O)[C@H](CCCNC(=N)N)NC(=O)[C@H](C)NC(=O)[C@H](CC(C)C)NC(=O)[C@H](CC(N)=O)NC(=O)[C@H](Cc2c[nH]c3ccccc23)NC(=O)[C@@H]2CCCN2C(=O)[C@H](CC(C)C)NC(=O)[C@H](CCCNC(=N)N)NC(=O)[C@@H](NC(C)=O)CSSC[C@@H](C(N)=O)NC(=O)[C@@H]2CCCN2C(=O)[C@H](CC(C)C)NC(=O)CNC1=O) [Compound 73] | 11
14 | 5FAM-SGSGCFIPWNLQRIGLLC-NH2 (disulfide 5-18 (inferred)) [Compound 33] | 6.01
